According to patent publication US20180334496A1 (KODIAK SCIENCES, published 2018):

B1: KCD002 (antibody, V domains shown)
VH: EVKLVESEGGLVQPGSSMKLSCTASGFTFSDYYMAWVRQVPEKGLEWVGNINYDGSSTYYLDSLKSRFIISRDSAKNILYLQMSSLKSEDTATYFCARGEDFYLYAMDYWGQGTSVTVSS
VL: DIQMTQSPASLSASVGETVTITCRASENIHSYLAWYQQKQGKSPQLIVYNTKTLAEGVPSRFSGSGSGTQFSLKINSLQPEDFGSYYCQHHYGIPPTFGGGTKLEIK
B2: KCD019 (antibody, V domains shown)
VH: QVQLQQSGAELARPGASVKMSCKASGYTFATYTIHWVKQRPGQGLEWIGYLNLRNDYTHYNQKFRDKAALTADKSSSTAYMQLSSLTSEDSAVYNCAFRLGNDRQGWYFDVWGAGTTVTVSS
VL: DIVMTQAHRFMSTSVGDRVIISCKASQDVGTAVAWYQQTPGQSPKILIYWTSTRHTGVPDRFTGSRSGTDFTLTISNVQSEDLADYFCQQYTTYPLTFGGGTKLEIK
B3: KCD017 (antibody, V domains shown)
VH: DVQLQESGPDLVKPSQSLSLTCTVTDYSITSGYSWHWIRQFPGNKLEWLGYIHSSGNTNYNPSLKSRFSITRDTSKNQFFLQLNSVTSEDTATYYCALHYYGSSFGWYFDVWGAGTTVTVSS
VL: DIVMTQSHKFMSTSVGDRVYITCKASQDVGTAVAWYQQTSGQSPKLLIYWASTRHTGVPDRFTGSGSGTDFTLTLSNVQSEDLADYFCQQYTSYPLTFGAGTKLELK
B4: KCD038 (antibody, V domains shown)
VH: EVQLQQSGPELVKPGTSMKISCKASGYSFADYTMNWVKQSHGKSLEWIGLINPYNGGTSYNQKFMGKATLTVDKSSSTAYMELLSLTSEDSAVYYCARWGTYSHNYDYAMDYWGQGTSVTVSS
VL: DVVMTQTPLSLPVSLGDQASISCRSSQSLVHSNGNTYLYWYFQKPGQSPKFLIYKVSNRFSGISDRFSGSGSGTDFTLKISRVEAEDLGVYFCSQSTHVPPFTFGSGTKLEIK
B5: KCD039 (antibody, V domains shown)
VH: EVQLQQSGPEMVKPGASMKISCKASGYSFADYTLNWVKQSHGKSLEWIGLINPYNGGTSYNQKFMGKATLTVDKSSSTAYMELLSLTSEDSAVYYCTRWGTYSHNYDYAMDYWGQGTSVTVSS
VL: DVVMTQTPLSLSVSLGDQASISCRSSQSLVHSNGNTYLYWYLQKPGQSPKLLIYKVSNRFSGITDRFSGSGSGTDFTLKISRVEAEDLGVYFCSQSTHVPPFTFGSGTKLEIK
B6: KCD050 (antibody, V domains shown)
VH: QVQLKESGPGLVAPSQSLSITCTVSGFSLNSYGVQWVRQPPGQGLEWLVVIWRDGTITYNSALKSRLSINKDNSKSQVFLKMNSLQTDDTAMYYCGRTSHYGNFNYYVMDYWGQGTAVTVSS
VL: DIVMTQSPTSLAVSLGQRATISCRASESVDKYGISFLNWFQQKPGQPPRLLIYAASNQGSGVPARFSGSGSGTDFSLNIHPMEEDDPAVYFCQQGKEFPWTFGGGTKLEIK
B7: KCD052 (antibody, V domains shown)
VH: QVQLKESGPGLVAPSQSLSITCTVSGFSLNSYGVQWVRQPPGQGLEWLGVIWRDGSITYNSALKSRLSIRKDNSKSQVFLKMNSLQTDDTAMYYCGRTSHYGNYNYYVMDYWGQGTAVTVSS
VL: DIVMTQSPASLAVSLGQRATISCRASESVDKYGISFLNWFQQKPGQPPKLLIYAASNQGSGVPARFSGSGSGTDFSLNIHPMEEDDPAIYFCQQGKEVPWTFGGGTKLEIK
B8: KCD070 (antibody, V domains shown)
VH: EIQLQQTGPELVKPGASVKISCKASGYSFTDYIILWVKQSHGKSLEWIGNINPYYDYTSYNLKFKGKATLTVDKSSSTAYMQLNSLTSEDSAVYYCARSDGYYGGDYWGQGTSVTVSS
VL: DIVMTQSHKFMSTSVGDRVSITCKASQDVGTAVAWYQQKPGQSPKLLIYWASTRHTGVPDRFTGSGSGTDFTLTINNVQSEDLADYFCQQYSSYPWTFGGGTTLEIK
B9: KCD133 (antibody, V domains shown)
VH: EVQLVESGGGLLQPKGSLKLSCAASGFTFNTYAMNWVRQAPGKGLEWVARIRSKSSNYATYYADSVKDRFTISRDDSQSMFYLEMNNLKTEDTAMYYCVRDRGYYYVMDYWGQGTSVTVSS
VL: DIVLTQSPASLAVSLGQRATISCRASESVEYYGTSLMQWYQQKPGQPPKLLINAASNVESGVPARFSGSGSGTDFSLNIHPVEEDDIAMYFCQQSRKVPWTFGGGTKLEIK
B10: KCD208 (antibody, V domains shown)
VH: EVQLQQSVAELVRPGASVKLSCTVSGFNIKNTYMHWVKQRPEQGLEWIGRIDPANGDTTYAPKFQGKATITADTSSNSAYLHLSRLTSEDTAIYYCSLYDYDGYWGQGTTLTVSS
VL: EIVLTQSPALMAASPGEKVTITCSVSSSISSSSLHWYRQKSGTSPKPWIYGTSHLASGVPVRFSGSGSGTSYSLTISSMEAEDAATYYCQQWDTYPWTFGGGTKLEIK
B11: KCD230 (antibody, V domains shown)
VH: QVQLQQPGTELVKPGASVKLPCKASGYTFTSYWMQWVKQRPGQGLEWIGEIDPSDTYINYNQKFKGKATLTVDTSSTTAYMQLSSLTSEDSAVYYCARYTTIMASDYWGQGTTLTVSS
VL: DIQMTQTTSSLSVSLGDRVTISCRASQDITNYLNWYQQKPDGTVKLLIYFTSRLHSGVPSRFSGSGSGTDYSLTISNLEPEDIATYYCQQYSKLPWTFGGGTKLEIK
B12: KCD008 (antibody, V domains shown)
VH: EVQLQQSGPELVKAGASVKMSCTASGFNIKDTYMHWVKQRPEQGLAWIGRIDPANGNIKYDPKFQGKATITADTSSNTAYLQLSSLTSDDTAVYYCTSAMDYWGQGTSVTVSS
VL: QIVLTQSPEIMSASPGEKVTMTCSARSSVSYMYWYQQKPGSSPRLLIYDTSNLASGVPVRFSGSGSGTSYSLTISRMETEDAATYYCQQWSTYPFTFGSGTKLEIK
B13: KCD040 (antibody, V domains shown)
VH: EVQLQQSGAELVKPGASVKLSCTASDFNIKDTYMHWVMQRPEQGLEWIGKIDPANGNTEFDPKFQGKATITADTSSNTAYLQLTSLTSEDTAVYYCTRAMDYWGQGTSVTVSS
VL: QIVLTQSPAIMSASPGEKVTMTCSAGSSVSYMYWYQQKPGSSPRVLIYDTSNLASGVPVRFSGSGSGTSYSLTISRMEAEDAATYYCQQWSNYPYTFGGGTKLEIK
B14: KCD013 (antibody, V domains shown)
VH: EVQLQQSGAELVKPGASVKLSCTASGFKIKDTYMHWVKERPDQGLEWIGRIDPANGNTKYDPKFQGKATITADTSSNTAYLQLSSLTSEDTAVYYCANAMDYWGQGTSVTVSS
VL: QIILTQSPAIMSASPGEKVTMTCSASSSVSNMYWYQQKPGSSPRLLIYDTSNLASGVPVRFSGSGSGASYSLTISRMEAEDAATYYCQQWSSYPWTFGGGTKLEIK
B15: KCD018 (antibody, V domains shown)
VH: QVQLQQSAAELARPGASVKMSCKASGYTFTSYTVHWVKQRPGQGLEWIGYINPSSGFTDYNQKFKDKTTLTADISSSTAYIQLSSLTSEDSAVYYCARRGVNWSWFAYWGQGTLVTVSA
VL: NIMMTQSPSSLAVSAGEKVTMSCKSSQSVLYSSNQKNYLAWYQQKPGQSPQLLIYWASTRESGVPERFTGSGSGTDFTLTISSVQAEDLAVYYCHQYLSSWTFGGGTKLEIK
B16: KCD030 (antibody, V domains shown)
VH: QVQLQQSGAELAKPGASVKMSCKASGYTFTNYWMHWVKQRPGQGLEWIGYINPSIGYTEYNQKFKDKATLTADKSSSTAYMQLSSLTSEDSAVFYCATFIYYAMDYWGQGTSVTVSS
VL: DIQMNQSPSSLSASLGDTITITCHASQNINVWLSWYQQKPGNIPKLLIYKASNLHTGVPSRFSGSGSGTGFTLTISSLQPEDIATYYCQQGQSYPYTFGGGTKLEIK
B17: KCD065 (antibody, V domains shown)
VH: QVQLQQSGAELARPGASVKMSCKASGYTFTTYTIHWVKQRPGQGLEWIGYINPSSDFTNYNQNFADKATLTADRSSSTAYMQLSSLTSEESAVYYCAIRLGYDRQGWYFDVWGAGTTVTVSS
VL: DIVMTQSHKFLSTSLGDRVSITCKASQDVGSAVAWYQQKPGQSPDLLIYWTFTRHTGVPDRFTGSRSGTDFTLTISNVQSGDLADYFCQQYSNYPLTFGGGTKLEIK
B18: KCD114 (antibody, V domains shown)
VH: EVQLQQSGPELVKPGASVKISCKASGYSFTAYYMNWVKQSPEKSLEWIGDINPSTGGTTYNQNFKAKATLTVDKSSSTAYMHLKSLTSEDSAVYYCATTYYSGNSYVGFAYWGQGTLVTVSA
VL: DIVMTQSHKFMSTSVGDRVSITCKASQDVSTAVAWYQQKPGQSPKLLIFWASTRHTGVPDRFTGSGSGTDYTLTISSVQAEDLALYYCQQHYSTPWTFGGGTKLEIK
B19: KCD004 (antibody, V domains shown)
VH: EVQLQQSGAELVRPGSSVKMSCKTSGKTFTSHGINWVKQRPGQGLEWIGYIYIGNGYNEYNEKFKGKATLTSDTSSSTAYMQLSSLTFEDSAIYFCVRKAYGNYGFDDWGQGTTLTVSS
VL: DIQMTQSPTSLSASLGESVSLTCRASQEISGYLNWLQQKPDGSIKRLIYAASTLDSGVPKRFSGSRSGSDYSLTISSLESEDFADYYCLQYANYPFTFGSGTKLEVK
notes: also called OG2063
B20: KCD125 (antibody, V domains shown)
VH: EVQLQQSGAELVRPGSSVKMSCKTSGNTFTSYGINWVKQRPGQGLEWIGYIYIGTGYTEYNEKFKGKATLTSDTSSSTAYMQLSSLTSEDSAIYFCVRKAYGNYGFDYWGQGTTLTVSS
VL: DIQMTQSPSSLSASLGERVSLTCRASQEISGYLSWLQQKPDGTIKRLIYAASTLDSGVPKRFSGSRSGSDYSLTISSLESEDFADYYCLQYASYPFTFGSGTKLEIK
B21: KCD126 (antibody, V domains shown)
VH: EVQLQQSGAELVRPGSSVKMSCKTSGKTFTSHGINWVKQRPGQGLEWIGYIYIGNGYNEYNEKFKGKATLTSDTSSSTAYMQLSSLTFEDSAIYFCVRKAYGNYGFDDWGQGTTLTVSS
VL: DIQMTQSPTSLSASLGESVSLTCRASQEISGNLNWLQQKPDGSIKRLIYAASTLDSGVPKRFSGSRSGSDYSLTISSLESEDFADYYCLQYANYPFTFGSGTKLEVK
B22: KCD205 (antibody, V domains shown)
VH: EVQLQQSGAELVRPGSSVKMSCKTSGNTFTSHGINWVKQRPGQGLEWIGYIYIGNGYNEYNEKFKGKATLTSDTSSSTAYMQLSSLTSEDSAIYFCVRKAYGNYGFDDWGQGTTLTVSS
VL: DIQMTQSPSSLSASLGERVSLTCRASQEISGYLSWLQQKPDGTIKRLIYAASTLDSGVPKRFSGSSSGSDYSLTISSLESDDFADYYCLQYASYPFTFGSGTKLEIK
B23: KCD047 (antibody, V domains shown)
VH: EVQLQQSGAEFVKPGASVRLSCTASGFNIKDTYMHWVKQRPEQGLEWIGRIDPANGYTKDDPKFQGKATITADTSSNTAYLQLSSLTSEDTAVYYCASAMDYWGQGTSVTVSS
VL: QIVLTQSPAVMSASPGEKVAMTCSASSSVTYMYWYQQKPGSSPRLLIYDTSNLASGVPVRFSGSGSGTSYSLTISRMEAEDAATYYCQQWSTYPFPFGSGTKLEIK

These binders were tested against T1, human Complement Factor D (CFD), purified from human serum (human, UniProt P00746 26-253) (assay: SPR MX96, mAbs amine-coupled, CFD injected).
T1 construct: serum purified (CompTech A136); also called serum purified CFD; hCFD-Comptech
T1 sequence (P00746 26-253): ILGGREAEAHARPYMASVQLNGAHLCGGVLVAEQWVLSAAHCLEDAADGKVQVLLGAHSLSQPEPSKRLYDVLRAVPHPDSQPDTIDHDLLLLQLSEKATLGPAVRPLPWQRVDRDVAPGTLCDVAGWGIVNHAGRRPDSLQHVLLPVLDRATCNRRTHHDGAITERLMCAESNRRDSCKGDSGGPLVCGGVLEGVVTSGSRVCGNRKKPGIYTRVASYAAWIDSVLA
B1 was tested, and the Kd was 0.132 nM. Work on B2 yielded a Kd of 7.24 nM. For B3, the Kd was 7.85 nM. Binder B4 has a Kd of 37.2 nM. In the case of B5, the Kd is reported as 52.5 nM. With B6 the Kd was 1.96 nM. B7 showed a Kd of 3.07 nM. B8 showed a Kd of 3.83 nM. With B9 the Kd was 11.5 nM. With B10 the Kd was 2.55 nM. With B11 the Kd was 2.48 nM. Work on B12 yielded a Kd of 4.38 nM. B13 was tested, and the Kd was 1.93 nM. Work on B14 yielded a Kd of 7.32 nM. For B15, the Kd was 40.8 nM. In the case of B16, the Kd is reported as 4.17 nM. Work on B17 yielded a Kd of 3.28 nM. With B18 the Kd was 8.06 nM. B19 showed a Kd of 0.353 nM. B20 was tested, and the Kd was 3.75 nM. B21 gave a Kd of 0.34 nM. Binder B22 has a Kd of 2.98 nM. B23 showed a Kd of 4.37 nM.
